The target in experiment [1] is T1, soluble recombinant human vimentin (srhVim), full length, expressed from pET30 in E. coli (human, UniProt P08670 2-466).
T1 construct: also called full length vimentin; full-length Vimentin; not shown: His tag from pET30 (Ni2+ purification, anti-His detection)
The experiment can be described thus: ELISA, wells coated with PSGL-1/Fc 10 µg/mL, srhVim added at rising concentrations, detection with anti-His/HRP. As for the experimental part:
The observations in these experiments, in certain embodiments, are attributed to srhVim either affecting P-selectin, PSGL-1, or both. ELISA was performed by coating 96-well plates with either PSGL-1/Fc protein (10 μg/mL), P-selectin/Fc protein (10 μg/mL), or BSA (10 μg/mL) and adding various concentrations of srhVim to each well. Detection was through anti-His/HRP antibodies. Increasing amounts of srhVim bound to P-selectin/Fc protein and reached saturation at 20 μg/mL. There was no binding of srhVim to PSGL-1/Fc (FIG. 6B).

The target of experiment [2] is T2, recombinant human vimentin (rhVim), expressed from pQE-30 in E. coli M15 (human, UniProt P08670 2-466).
T2 construct: also called pQE-30-hVim product; not shown: polyhistidine tag from pQE-30 (Ni2+ purification, anti-polyhistidine detection)
T2 sequence (P08670 2-466): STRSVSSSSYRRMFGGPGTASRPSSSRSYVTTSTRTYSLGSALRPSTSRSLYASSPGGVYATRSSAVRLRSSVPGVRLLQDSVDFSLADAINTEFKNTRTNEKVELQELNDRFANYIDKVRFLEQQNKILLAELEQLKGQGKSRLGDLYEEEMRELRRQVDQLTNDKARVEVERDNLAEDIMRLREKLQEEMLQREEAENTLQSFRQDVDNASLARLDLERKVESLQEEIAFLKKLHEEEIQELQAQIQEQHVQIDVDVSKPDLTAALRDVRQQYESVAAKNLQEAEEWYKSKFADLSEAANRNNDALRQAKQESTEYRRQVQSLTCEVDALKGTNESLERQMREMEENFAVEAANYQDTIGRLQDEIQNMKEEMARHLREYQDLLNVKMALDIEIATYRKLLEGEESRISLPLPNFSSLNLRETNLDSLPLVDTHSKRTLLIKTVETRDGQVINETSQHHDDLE
Nature of the experiment: ELISA, wells coated with PSGL-1/Fc 10 µg/mL in DPBS, blocked with 1% BSA, rhVim added at rising concentrations, detection with HRP-conjugated anti-polyhistidine antibody. As for the experimental part:
rhVim binding assay—To determine which proteins to which rhVim binds, we performed enzyme linked immunosorbent assays (ELISA) as we described (Da, et al., 2014). Immunoplate wells were coated overnight at 4° C. with P-selectin/Fc or PSGL-1/Fc (10 μg/ml in DPBS). Wells were washed with DPBS and then blocked with 1% BSA for one hour. After blocking, rhVim was added in increasing concentrations and detected using a HRP-conjugated anti-polyhistidine antibody. Tetramethylbenzidine solution was used as the substrate and the reactions were stopped using 1 N sulfuric acid. All ELISA measurements were performed in duplicate and the data reported were averaged from two separate experiments performed.
The effect of rhVim blocking PMN adhesion to P-selectin could be attributed to rhVim either affecting P-selectin, PSGL-1, or both. Therefore, ELISAs were performed with wells coated either PSGL-1/Fc protein (10 μg/mL) or P-selectin/Fc protein (10 μg/mL) and incubated with increasing concentrations of rhVim to each well. Increasing amounts of rhVim bound to P-selectin/Fc protein and reached saturation at 20 μg/mL. There was no binding of rhVim to PSGL-1/Fc at any concentration (FIG. 15C).

From US20200061153A1 (BAYLOR COLLEGE OF MEDICINE, published 2020) come the findings set out here.

T1 sequence (P08670 2-466): as above

B1: PSGL-1/Fc protein (Fc fusion, UniProt Q14242 42-295, looked up)
chain: QATEYEYLDYDFLPETEPPEMLRNSTDTTPLTGPGTPESTTVEPAARRSTGLDAGGAVTELTTELANMGNLSTDSAAMEIQTTQPAATEAQTTQPVPTEAQTTPLAATEAQTTRLTATEAQTTPLAATEAQTTPPAATEAQTTQPTGLEAQTTAPAAMEAQTTAPAAMEAQTTPPAAMEAQTTQTTAMEAQTTAPEATEAQTTQPTATEAQTTPLAAMEALSTEPSATEALSMEPTTKRGLFIPFSVSSVTHKG
notes: Bought from R & D Systems; the species is not clearly stated; not shown: Fc part
Regarding B1, the binding result in experiment [1] and in experiment [2] was “no binding (tested: 40 µg/mL)” throughout.
